Experimental data published in the DeepSol protein solubility set.

Experiment: soluble on expression in E. coli; label from the status in PepcDB or PDB records

For “MKIVKAEVFVTCPGRNFVTLKITTEDGITGLGDATLNGRELSVASYLQDHLCPRLIGRDAHRIEDIWQFFYKGAYWRRGPVTMSAISAVDMALWDIKAKAANMPLYQLLGGASREGVMVYCHTTGHSIDEALDDYARHQELGFKAIRVQCGIPGMKTTYGMSKGKGLAYEPATKGQWPEEQLWSTEKYLDFMPKLFDAVRNKFGFNEHLLHDMHHRLTPIEAARFGKSIEDYRMFWMEDPTPAENQECFRLIRQHTVTPIAVGEVFNSIWDCKQLIEEQLIDYIRTTLTHAGGITGMRRIADFASLYQVRTGSHGPSDLSPVCMAAALHFDLWVPNFGVQEYMGYSEQMLEVFPHNWTFDNGYMHPGDKPGLGIEFDEKLAAKYPYEPAYLPVARLEDGTLWNR”, which “soluble on expression in E. coli” value is on record?
The value was “not soluble”.

For “MTETTHVTSCPLNCWDVCGLKVTVNEGKVVRVDGDEHHPITKGNICGRGRMLKERVNAKERLLYPLKKVNGQFVRISWEEALDDIAGKMRKLKEQFGPTAVLHSHDYANNGLLKNLDRRFFNCYGGATELIGSLCWGAGIEAQTWDFGNAYSHAPEDIDNSRHIVIWGRNVARTNMHLFERLLAAKKRGATIVVIDPLFGPTARIADQYVCIKPGMDAFLAMGIMKELLRLGLEDRAFIKQHTIGFDDVKQLLQTISLAEIERHTGVSRDQMTKLARLYGDRPTATYLGLGMQRYANGGNTIRWIDALVAASGNVGIPGGGANFGNLQVGECFDKAALTLPERKTASRTWTMMKQGEEILRADDPPIGMVIVTCGNPLAQVPNTNLMKKAFASIETVVVFEQFMTDTAAMADYVLPVAASFEEEDVYCSSMYHAYLNYGPKLVDPPGEAKPDLWIWTELAKRLGFGDDFAYTREQFLAMALRPLEHHGITLKRLKTEHRVLLPVEPVPWRDRRFQTPSGKYEFTSTIAKKKGMDGRLQIMYPAESEESNPALAAKYPYRLLTIHPLRSNHSQHYPLIPALQTVRIEVAADVAAAKGLADGDRARVYNDRGSLVGTVKVLDGAYPGTINIDEGQWGVFGGPVNVLTSDLESDNGCGSALYDCLVNIEKVTSEAK”, which “soluble on expression in E. coli” value is on record?
Its value is “soluble”.

Which “soluble on expression in E. coli” value does the source give for “MGSDKIHHHHHHMKLVSLRLEEGLIEKIDEVARKTLQSRSEIIRSSIALYLSLLENIGFYFKPSLPMKNVDVYEERNAVNVDLGNLTSVSVLSVSYGGVGELELDFRKDLGFVAEVMANQVAVETCCRFITPLLVMLTSTCEFLYTHTFFRMFSEAIRERMKVRTMLAGYEEFFETKQSGFVATVVGLRDMSTRNSPRRGDRIYFFGNAVSGAELSEEELLDMADVERLVGLVKEGKASAIFPVKSGGLKEVADYAAALAGGKAMLFEKRGGCPATAIVLTSAEDLSGYGCELVGEIL” here?
The value was “not soluble”.

With “MGSDKIHHHHHHMIPEDVLAFFDLKQGRRPKAILNVLVGKMTVSALFWGLEYDILEYLNFWKTIDTTSFLENVDRAVEGGFLAKKDELIYLTEAGQQKQFSCTTPTPFIKKVRLDEAIDLLLLANQVISEFSFKNNRYIPVSDNLRINVILKNWFKQLKSRNHHTTDIVQKYTQGLDELLSQLQQHDADILLSYLPNHVDPGWTIDQLAQAFGISKFQMELKIRLIFSKIISDAVLTKIAPFVDLLNSTIKENVMPDSTYQTWQLIRQGKTVDEVARLKHVKTNTVKEHILMAAILDSNFPFDKFVRFNFEIGKHPTEVDFRSIQSQIADITFFDFRLIQIRKIKEQQNNNGNR” as the sequence, how does the “soluble on expression in E. coli” value read?
The value was “not soluble”.

For “MSEKLRRCRKELTAAIDRAFEGVRHSQECTAQQRLDAPSLTSQPVHRLLCRNPLAACPSAAPYSGASCAPESENPAFGTHHIPVNSKLQQPLYPKRKPLTSKENVLMQSSILARDRQFWRAAGDGEDWRKDSLRKDMERDLKADPNVLLSSSSQEVTKDLLDMIDHTSIRTIEELAGKLEFENELNRVCGHCQDSPFKEEAWALLVDESPQKALDADPGSLKQALDDQNIVETVLDLEEDYNLMTSFKYQIE”, which “soluble on expression in E. coli” value is on record?
Its value is “soluble”.

Which “soluble on expression in E. coli” value does the source give for “MGSDKIHHHHHHMIGLRLDGYDPDLHHDAAVAFCIRARDDELFSPRHQHRKGQLILALHGAITCEVENAMWMVPPQYAVWLPGSLPHSNHVTAGAELCFLFIEPAAVVMPERCCTLKISPLCRELILSLARRTDPERAQMPTQRLIQVLFDELPQQPQEQLQLPVSGHPKIRQMVETMAQEPARWNTLGQWASVFAMSERNLARLVVKETGLSFRRWRHQLQLILALQALIAGRNVQQTAQMLGYDSTTAFITMFKKGLGQTPGQYLTGELLLPHN” here?
Its value is “not soluble”.
